The test system of data set [1] is GST-NR2F6 fusion protein, full-length, wild-type.
Data set [2] deals with GST-NR2F6 fusion protein, full-length, S89A mutant.
In data set [3] the test system is GST-NR2F6 fusion protein, full-length, S83A mutant.
Chain of GST-NR2F6 fusion protein, full-length, S83A mutant (chain, as listed by the source S83A): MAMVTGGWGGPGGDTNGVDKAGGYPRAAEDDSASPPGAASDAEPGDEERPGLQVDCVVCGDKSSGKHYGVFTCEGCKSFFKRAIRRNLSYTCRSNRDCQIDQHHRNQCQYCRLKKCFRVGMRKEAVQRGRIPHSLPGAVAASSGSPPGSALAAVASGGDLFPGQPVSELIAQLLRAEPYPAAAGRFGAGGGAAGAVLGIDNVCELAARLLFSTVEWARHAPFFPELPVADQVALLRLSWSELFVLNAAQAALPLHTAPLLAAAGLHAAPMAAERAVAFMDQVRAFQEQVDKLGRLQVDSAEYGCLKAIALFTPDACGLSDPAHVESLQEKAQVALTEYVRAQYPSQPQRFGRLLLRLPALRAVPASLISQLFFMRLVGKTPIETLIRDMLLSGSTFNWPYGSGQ

Chain of recombinant PKCtheta (Q04759 whole entry): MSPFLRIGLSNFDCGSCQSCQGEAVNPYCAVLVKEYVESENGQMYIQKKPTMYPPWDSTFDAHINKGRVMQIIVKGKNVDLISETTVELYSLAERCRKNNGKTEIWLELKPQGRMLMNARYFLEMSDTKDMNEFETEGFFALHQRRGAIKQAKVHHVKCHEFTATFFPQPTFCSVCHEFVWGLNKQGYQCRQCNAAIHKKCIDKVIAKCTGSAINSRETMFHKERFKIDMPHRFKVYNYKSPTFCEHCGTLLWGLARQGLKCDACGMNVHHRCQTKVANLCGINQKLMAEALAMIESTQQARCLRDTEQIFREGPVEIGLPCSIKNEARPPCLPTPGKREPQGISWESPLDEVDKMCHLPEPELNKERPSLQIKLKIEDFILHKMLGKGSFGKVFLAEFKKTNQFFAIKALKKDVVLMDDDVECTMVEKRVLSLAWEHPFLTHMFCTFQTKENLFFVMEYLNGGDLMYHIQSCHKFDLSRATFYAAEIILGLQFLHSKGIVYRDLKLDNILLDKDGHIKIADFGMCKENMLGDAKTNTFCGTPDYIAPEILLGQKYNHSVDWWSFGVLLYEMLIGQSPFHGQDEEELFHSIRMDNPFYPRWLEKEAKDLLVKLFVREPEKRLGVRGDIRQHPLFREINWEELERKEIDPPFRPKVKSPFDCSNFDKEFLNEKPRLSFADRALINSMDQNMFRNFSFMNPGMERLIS
Chain of GST-NR2F6 fusion protein, full-length, wild-type (chain, as listed by the source): as the sequence (chain, as listed by the source S83A) above, with A83S counted along it
Chain of GST-NR2F6 fusion protein, full-length, S89A mutant (chain, as listed by the source S89A): as the sequence (chain, as listed by the source S83A) above, with A83S, S89A counted along it

In the case of Protein kinase A (PKA), the “phosphorylation (32P incorporation), in vitro protein kinase assay” value (“phosphorylation (32P incorporation)” for short) in data set [1] is “(but not PKCzeta or PKA)”.

Consider recombinant PKCalpha, for which the “phosphorylation (32P incorporation)” value in data set [2] is “(but not at Ser-89)”; in data set [1], “PKCalpha, delta and theta (but not PKCzeta or PKA) were able to phosphorylate recombinant NR2F6 in vitro”; in data set [3], “This phosphorylation was lost after the predicted phosphorylation site at Ser-83 (but not at Ser-89) was mutated in the full-length NR2F6 protein”.

For recombinant PKCdelta, the “phosphorylation (32P incorporation)” value in data set [2] is “(but not at Ser-89)”; in data set [1], “PKCalpha, delta and theta (but not PKCzeta or PKA) were able to phosphorylate recombinant NR2F6 in vitro”; in data set [3], “This phosphorylation was lost after the predicted phosphorylation site at Ser-83 (but not at Ser-89) was mutated in the full-length NR2F6 protein”.

As for recombinant PKCtheta, the “phosphorylation (32P incorporation)” value in data set [2] is “(but not at Ser-89)”; in data set [1], “PKCalpha, delta and theta (but not PKCzeta or PKA) were able to phosphorylate recombinant NR2F6 in vitro”; in data set [3], “This phosphorylation was lost after the predicted phosphorylation site at Ser-83 (but not at Ser-89) was mutated in the full-length NR2F6 protein”.
